According to PMC10320249 (eBioMedicine, 2023):

Experiments:
[1] = target: recombinant human CD38 (soluble CD38) (Homo sapiens, UniProt P28907); assay: BLI
[2] = target: CD38 expressed on the plasma membrane of tumour cell lines (Homo sapiens, UniProt P28907); assay: cell-based or functional assay

| Kd [1] | CD38 cyclase activity on Daudi cells (NGD+ to cGDPR), EC50 [2] | CD38 hydrolase activity on Daudi cells (ε-NAD+ to ε-ADPR), EC50 [2] | CD38 cyclase activity on Daudi cells, EC50 [2] | CD38 hydrolase activity on Daudi cells, EC50 [2] | Binder |
| --- | --- | --- | --- | --- | --- |
| 1.1 nM | 0.419 µg/mL | 0.335 µg/mL | – | – | HexaBody-CD38 (GEN3014), hexamerization-enhanced human IgG1 with the E430G Fc mutation (antibody, V domains shown) VH: QVQLVQSGAEVKKPGSSVKVSCKAFGGTFSSYAISWVRQAPGQGLEWMGRIIRFLGIANYAQKFQGRVTLIADKSTNTAYMELSSLRSEDTAVYYCAGEPGERDPDAVDIWGQGTMVTVSS VL: DIQMTQSPSSLSASVGDRVTITCRASQGIRSWLAWYQQKPEKAPKSLIYAASSLQSGVPSRFSGSGSGTDFTLTISSLQPEDFATYYCQQYNSYPLTFGGGTKVEIK |
| 3.9 nM | – | – | 0.179 µg/mL | 0.028 µg/mL | daratumumab (antibody, V domains shown) VH: EVQLLESGGGLVQPGGSLRLSCAVSGFTFNSFAMSWVRQAPGKGLEWVSAISGSGGGTYYADSVKGRFTISRDNSKNTLYLQMNSLRAEDTAVYFCAKDKILWFGEPVFDYWGQGTLVTVSS VL: not shown |
